In patent US20070016969:

Biological target: hirudin in milk of BC1-GB-Hir transgenic mice (UniProt P01050)
Sequence (P01050 whole entry): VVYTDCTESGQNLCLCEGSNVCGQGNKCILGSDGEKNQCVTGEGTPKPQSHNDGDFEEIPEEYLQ

## thrombin (thrombin solution, 50 U/ml)
  anti-coagulation activity (chromogenic thrombin substrate Tos-Gly-Pro-Arg-4-NA, A405): milk collected from lactating transgenic mice of the invention has a high level of anti-coagulation activity in comparison with that from non-transgenic mice (normal mouse milk)
